Blank lines part the entries; values can stand above or below the binder they belong to.
Key:
Smc3 = target: T1, Smc3 (budding yeast, UniProt P47037 1-1230); assay: SEC; purified cohesin tetramer, 150 nM in cohesin loading buffer (35 mM Tris-HCl pH 7.0, 20 mM NaCl, 0.5 mM MgCl2, 0.5 mM ATP), run directly or after 120 min at 29°C on Superose 6 Increase 10/300 GL in R buffer (150 mM NaCl); UV absorbance; details: both partners purified
T1 construct: Smc3, budding yeast cohesin subunit; Smc3-encoding genomic DNA; The expression strain is eco1 deleted; also called cohesin subunit Smc3; source: co-purified (IgG agarose, heparin, Superose 6)
T1 sequence (looked up): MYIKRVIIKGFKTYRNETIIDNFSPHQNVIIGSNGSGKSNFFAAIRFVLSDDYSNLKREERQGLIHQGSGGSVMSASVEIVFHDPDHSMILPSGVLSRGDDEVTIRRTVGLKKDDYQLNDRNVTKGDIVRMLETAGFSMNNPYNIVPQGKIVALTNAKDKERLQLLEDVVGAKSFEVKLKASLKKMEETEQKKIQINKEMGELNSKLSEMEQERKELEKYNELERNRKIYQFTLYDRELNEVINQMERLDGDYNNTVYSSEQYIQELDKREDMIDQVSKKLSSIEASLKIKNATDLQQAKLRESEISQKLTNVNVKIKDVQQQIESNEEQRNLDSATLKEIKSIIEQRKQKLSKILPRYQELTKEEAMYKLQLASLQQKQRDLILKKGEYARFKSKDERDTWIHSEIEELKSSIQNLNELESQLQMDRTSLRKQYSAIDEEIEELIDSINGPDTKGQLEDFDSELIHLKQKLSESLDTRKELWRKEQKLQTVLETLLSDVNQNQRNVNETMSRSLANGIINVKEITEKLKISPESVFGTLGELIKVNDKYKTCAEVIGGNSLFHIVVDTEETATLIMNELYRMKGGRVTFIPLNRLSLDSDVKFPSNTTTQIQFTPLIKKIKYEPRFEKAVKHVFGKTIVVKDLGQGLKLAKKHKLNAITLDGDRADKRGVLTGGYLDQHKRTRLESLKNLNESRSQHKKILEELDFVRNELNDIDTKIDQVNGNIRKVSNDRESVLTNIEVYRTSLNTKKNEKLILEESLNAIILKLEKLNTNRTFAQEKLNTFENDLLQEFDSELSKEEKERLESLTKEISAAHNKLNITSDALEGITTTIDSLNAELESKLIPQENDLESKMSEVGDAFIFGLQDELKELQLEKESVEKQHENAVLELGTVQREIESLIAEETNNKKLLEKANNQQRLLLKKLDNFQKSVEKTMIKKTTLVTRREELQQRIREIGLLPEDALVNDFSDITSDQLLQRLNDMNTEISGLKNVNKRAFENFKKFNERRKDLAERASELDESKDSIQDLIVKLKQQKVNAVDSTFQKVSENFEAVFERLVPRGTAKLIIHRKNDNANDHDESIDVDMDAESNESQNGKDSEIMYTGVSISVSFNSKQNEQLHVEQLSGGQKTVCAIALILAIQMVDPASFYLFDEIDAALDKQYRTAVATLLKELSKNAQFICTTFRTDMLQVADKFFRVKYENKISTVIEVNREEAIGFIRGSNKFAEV

Scc3 = target: T2, Scc3 (budding yeast, UniProt P40541 1-1150); assay: as above; details: both partners purified
T2 construct: Scc3, budding yeast cohesin subunit; genomic DNA encoding Scc3; also called HEAT repeat subunit Scc3; source: co-purified (IgG agarose, heparin, Superose 6)
T2 sequence (looked up): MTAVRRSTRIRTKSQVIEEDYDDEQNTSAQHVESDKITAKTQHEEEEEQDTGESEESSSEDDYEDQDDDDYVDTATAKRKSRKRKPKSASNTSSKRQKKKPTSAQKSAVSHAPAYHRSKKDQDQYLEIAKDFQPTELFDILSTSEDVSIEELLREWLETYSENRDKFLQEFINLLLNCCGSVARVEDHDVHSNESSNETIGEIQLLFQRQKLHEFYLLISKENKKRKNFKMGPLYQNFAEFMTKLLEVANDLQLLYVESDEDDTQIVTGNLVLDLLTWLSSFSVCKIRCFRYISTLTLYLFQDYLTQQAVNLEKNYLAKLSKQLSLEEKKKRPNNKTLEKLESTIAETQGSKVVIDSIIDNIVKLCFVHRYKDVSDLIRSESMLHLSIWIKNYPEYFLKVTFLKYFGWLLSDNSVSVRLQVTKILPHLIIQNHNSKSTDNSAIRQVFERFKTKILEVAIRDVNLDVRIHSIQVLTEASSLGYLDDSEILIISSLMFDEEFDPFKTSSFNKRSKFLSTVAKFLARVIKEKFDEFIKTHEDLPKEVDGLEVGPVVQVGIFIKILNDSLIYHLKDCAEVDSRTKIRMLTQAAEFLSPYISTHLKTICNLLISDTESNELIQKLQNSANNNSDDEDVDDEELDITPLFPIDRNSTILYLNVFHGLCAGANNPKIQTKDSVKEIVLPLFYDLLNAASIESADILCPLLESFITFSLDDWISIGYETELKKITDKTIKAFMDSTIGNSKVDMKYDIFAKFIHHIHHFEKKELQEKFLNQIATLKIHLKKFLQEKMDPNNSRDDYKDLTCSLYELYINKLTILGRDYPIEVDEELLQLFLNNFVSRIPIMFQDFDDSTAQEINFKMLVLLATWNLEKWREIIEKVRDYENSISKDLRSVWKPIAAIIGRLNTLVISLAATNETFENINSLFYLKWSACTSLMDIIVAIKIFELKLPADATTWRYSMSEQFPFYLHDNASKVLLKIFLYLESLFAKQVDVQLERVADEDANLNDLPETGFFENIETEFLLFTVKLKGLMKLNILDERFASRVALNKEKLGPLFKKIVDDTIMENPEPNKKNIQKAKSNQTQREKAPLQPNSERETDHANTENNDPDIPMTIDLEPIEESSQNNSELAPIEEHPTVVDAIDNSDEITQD

binding result (Smc3): binds
B1: Smc1 (natural protein, budding yeast, UniProt P32908 1-1225, looked up)
chain: MGRLVGLELSNFKSYRGVTKVGFGESNFTSIIGPNGSGKSNMMDAISFVLGVRSNHLRSNILKDLIYRGVLNDENSDDYDNEGAASSNPQSAYVKAFYQKGNKLVELMRIISRNGDTSYKIDGKTVSYKDYSIFLENENILIKAKNFLVFQGDVEQIAAQSPVELSRMFEEVSGSIQYKKEYEELKEKIEKLSKSATESIKNRRRIHGELKTYKEGINKNEEYRKQLDKKNELQKFQALWQLYHLEQQKEELTDKLSALNSEISSLKGKINNEMKSLQRSKSSFVKESAVISKQKSKLDYIFKDKEKLVSDLRLIKVPQQAAGKRISHIEKRIESLQKDLQRQKTYVERFETQLKVVTRSKEAFEEEIKQSARNYDKFKLNENDLKTYNCLHEKYLTEGGSILEEKIAVLNNDKREIQEELERFNKRADISKRRITEELSITGEKLDTQLNDLRVSLNEKNALHTERLHELKKLQSDIESANNQEYDLNFKLRETLVKIDDLSANQRETMKERKLRENIAMLKRFFPGVKGLVHDLCHPKKEKYGLAVSTILGKNFDSVIVENLTVAQECIAFLKKQRAGTASFIPLDTIETELPTLSLPDSQDYILSINAIDYEPEYEKAMQYVCGDSIICNTLNIAKDLKWKKGIRGKLVTIEGALIHKAGLMTGGISGDANNRWDKEEYQSLMSLKDKLLIQIDELSNGQRSNSIRAREVENSVSLLNSDIANLRTQVTQQKRSLDENRLEIKYHNDLIEKEIQPKITELKKKLDDLENTKDNLVKEKEALQNNIFKEFTSKIGFTIKEYENHSGELMRQQSKELQQLQKQILTVENKLQFETDRLSTTQRRYEKAQKDLENAQVEMKSLEEQEYAIEMKIGSIESKLEEHKNHLDELQKKFVTKQSELNSSEDILEDMNSNLQVLKRERDGIKEDIEKFDLERVTALKNCKISNINIPISSETTIDDLPISSTDNEAITISNSIDINYKGLPKKYKENNTDSARKELEQKIHEVEEILNELQPNARALERYDEAEGRFEVINNETEQLKAEEKKILNQFLKIKKKRKELFEKTFDYVSDHLDAIYRELTKNPNSNVELAGGNASLTIEDEDEPFNAGIKYHATPPLKRFKDMEYLSGGEKTVAALALLFAINSYQPSPFFVLDEVDAALDITNVQRIAAYIRRHRNPDLQFIVISLKNTMFEKSDALVGVYRQQQENSSKIITLDLSNYAE
notes: Smc1, budding yeast cohesin subunit; PCR amplified Smc1-encoding genomic DNA; also called cohesin subunit Smc1; source: co-purified (IgG agarose, heparin, Superose 6)

binding result (Scc3): binds
B2: Scc1 (natural protein, budding yeast, UniProt Q12158 1-566, looked up)
chain: MVTENPQRLTVLRLATNKGPLAQIWLASNMSNIPRGSVIQTHIAESAKEIAKASGCDDESGDNEYITLRTSGELLQGIVRVYSKQATFLLTDIKDTLTKISMLFKTSQKMTSTVNRLNTVTRVHQLMLEDAVTEREVLVTPGLEFLDDTTIPVGLMAQENSMERKVQGAAPWDTSLEVGRRFSPDEDFEHNNLSSMNLDFDIEEGPITSKSWEEGTRQSSRNFDTHENYIQDDDFPLDDAGTIGWDLGITEKNDQNNDDDDNSVEQGRRLGESIMSEEPTDFGFDLDIEKEAPAGNIDTITDAMTESQPKQTGTRRNSKLLNTKSIQIDEETENSESIASSNTYKEERSNNLLTPQPTNFTTKRLWSEITESMSYLPDPILKNFLSYESLKKRKIHNGREGSIEEPELNVSLNLTDDVISNAGTNDNSFNELTDNMSDFVPIDAGLNEAPFPEENIIDAKTRNEQTTIQTEKVRPTPGEVASKAIVQMAKILRKELSEEKEVIFTDVLKSQANTEPENITKREASRGFFDILSLATEGCIGLSQTEAFGNIKIDAKPALFERFINA
notes: Scc1, budding yeast cohesin kleisin subunit; genomic DNA encoding Scc1; also called kleisin subunit Scc1; source: co-purified (IgG agarose, heparin, Superose 6); not shown: two tandem protein A tags, C-terminal, kept

Reference: PMC6205631, “Topological in vitro loading of the budding yeast cohesin ring onto DNA” (Life Science Alliance, 2018)
